For one test, the system named is MA-10 cells. The experiment in a line: Testosterone (T) release from Leydig MA-10 cells (GPRC6A-mediated). It is filed as cell-based, Mouse. The settings on record: for effect of SHBG pre-incubation on T release induced by SHBG141–161: then SHBG141–161 10^−11M. The procedure: Human ucOCN was obtained from chemical decarboxylation of cxOCN, purchased from Bachem AG (Bachem, Bubendorf, Switzerland), as previously described. For displacement experiments, an aliquot ucOCN underwent chemical biotinylation as previously described[9],[41]. Unliganded human SHBG was purchased by […], Belgium). Human chorionic gonadotropin Gonasi was purchased by IBSA Farmaceutici Srl (Italy). Mouse Leydig-carcinoma cell line MA-10 (passage number 3 to 8; ATCC®; RRID: CRL-1573) were cultured on 0,1% gelatin/PBS-coated plasticware according to the manufacturer's instructions and maintained in DMEM:F12 Medium (ATCC®; RRID: 30-2006; pH 7,4) supplemented with additional 20 mM HEPES and horse serum to a final concentration of 15%. For immunofluorescence experiments, cells were let attach on 0,1% gelatin/PBS-coated round-coverslips (ø 13 mm, Menzel-Gläser-VWR International Srl, Milan, Italy) and then washed and fixed with 4% paraformaldehyde/PBS solution at room temperature for 15 min. After membrane permeabilization with 1% Triton X/PBS solution for 10 min at room temperature, cells were saturated with 5% bovine serum albumin/5% normal donkey serum/PBS solution for 1 hour and then incubated with rabbit-polyclonal anti-mouse GPRC6A IgG (dilution 1:200; Santa Cruz Biotechnology Inc. Heidelberg Germany; RRID: sc-67302,) and goat-polyclonal anti-human INSL3 IgG (dilution 1:200; Santa Cruz Biotechnology Inc; RRID: sc-48550) at 4 °C overnight. After extensive washing, primary immunoreaction was detected by appropriate secondary reagent, respectively: biotin conjugated-anti rabbit IgG (dilution 1:100; Vector Laboratories, Peterborough, UK; RRID: BA-1000) followed by Streptavidin […], (dilution 1:100; GeneTex/Prodotti Gianni, Milano, Italy; RRID: GTX85907) and FITC conjugated-anti goat IgG (dilution 1:100; Abcam, Milan, Italy; RRID: ab6737). Samples were then counterstained with 4',6-diamidino-2-phenylindole (DAPI), mounted with anti-fade buffer and then analyzed with Video-Confocal (VICO) fluorescence microscope (Nikon, Firenze, Italy). […] RRID: KGE010) according to manufacturer's instructions. Receptor blockade experiments were performed by pre-incubating cultured cells with anti-GPRC6A polyclonal antibodies (final concentration of […]; Santa Cruz Biotechnology Inc; RRID: sc-67302) for 30 minutes at 37 °C as previously described.

In a further test the test system is β-TC6 cells. Put plainly: Insulin release from Langerhans β-TC6 cells (GPRC6A-mediated). It is filed as cell-based, Mouse. The following applies: for effect of SHBG pre-incubation on insulin release induced by SHBG141–161: then SHBG141–161 10^−11M.
In test [1] the test system is extracellular domain of GPRC6A. The following applies: previous study; immunoprecipitation assays; cited from earlier work. The source says:
To this regard, our group recently reported that sex hormone-binding protein (SHBG), the major blood carrier of T, is able to bind the extrace ... || If on one hand these represent encouraging results about the reliability of GPRC6A as therapeutic target, on the other hand, drug peptides and biologics drown great interest for their favorable safety profile, target specificity and pharmacokinetics compared with traditional small-molecule drugs. To this regard, the metabotropic receptor GPRC6A has been widely investigated as the mediator of non-genomic effects of androgens.

Where [2] appears, read: SHBG 10^−14-10^−9M, any of the concentration tested.
Setting [3] is: increasing SHBG, 1 hour at 37 °C.

The values that follow come from publication PMC6923452, “SHBG141–161 Domain-Peptide Stimulates GPRC6A-Mediated Response in Leydig and β-Langerhans cell lines” (Scientific Reports, 2019).

Entries after “also recorded” stand apart in the source; their conditions may differ.

B1: SHBG: Unliganded human SHBG was purchased by Affiland; the major blood carrier of T (protein, UniProt P04278 30-402, looked up)
Sex hormone-binding globulin: LRPVLPTQSAHDPPAVHLSNGPGQEPIAVMTFDLTKITKTSSSFEVRTWDPEGVIFYGDTNPKDDWFMLGLRDGRPEIQLHNHWAQLTVGAGPRLDDGRWHQVEVKMEGDSVLLEVDGEEVLRLRQVSGPLTSKRHPIMRIALGGLLFPASNLRLPLVPALDGCLRRDSWLDKQAEISASAPTSLRSCDVESNPGIFLPPGTQAEFNLRDIPQPHAEPWAFSLDLGLKQAAGSGHLLALGTPENPSWLSLHLQDQKVVLSSGSGPGLDLPLVLGLPLQLKLSMSRVVLSQGSKMKALALPPLGLAPLLNLWAKPQGRLFLGALPGEDSSTSFCLNGLWAQGQRLDVDQALNRSHEIWTHSCPQSPGNGTDASH
Regarding B1, the “effect of SHBG pre-incubation on T release induced by SHBG141–161” value in the test with MA-10 cells (SHBG 10^−12M, 1 hour at 37 °C) is “complete blunt of the secretory stimulating activity”; in the test on MA-10 cells (SHBG 10^−13M, 1 hour at 37 °C), “significant reduction of T release; also recorded: significantly blunted”; with MA-10 cells (setting [3]) it was “progressive reduction of T and insulin release”. For the same molecule, the “induction of T release by SHBG alone” value in the test with MA-10 cells (setting [2]) is reported as “ineffective”. The “effect of SHBG pre-incubation on T release induced by hCG” value in the test with MA-10 cells (SHBG, any of the concentration tested, 1 hour at 37 °C, then hCG 2,5 nM) is “negligible effect on T and insulin release”. Also, the “effect of SHBG pre-incubation on insulin release induced by SHBG141–161” value with β-TC6 cells (SHBG 10^−12M, 1 hour at 37 °C) was “complete blunt of the secretory stimulating activity”; in the test on β-TC6 cells (setting [3]), “progressive reduction of T and insulin release”. The “induction of insulin release by SHBG alone” value in the test on β-TC6 cells (setting [2]) is “ineffective”. In the test with β-TC6 cells (SHBG, any of the concentration tested, 1 hour at 37 °C, then 15 mM glucose + 100 μM IBMX), the “effect of SHBG pre-incubation on insulin release induced by IBMX/glucose” value is “negligible effect on T and insulin release”. In addition, the “binding to GPRC6A” value in test [1] is reported as “simple binding observed through immunoprecipitation assays; also recorded: able to bind the extracellular domain of GPRC6A”.
